In the DeepSol protein solubility set:

Experiment: soluble on expression in E. coli; label from the status in PepcDB or PDB records

| Sequence | soluble on expression in E. coli |
| --- | --- |
| MIATPNILAPLHDILPLTKGEARISFIGSRSFLLEAPGEFDLPAQRWIWALSQSVSNWPDVAEIIPGMTNLLTIFKETPDDPDSVVGRLRDAWNSAQSLDLTGKTIEIPVHYGGEYATDLAAICDFSGLSDREVVRLHHEATYRVFALGSAPGFGYLHGLDPRIYMPRKTVPSIRMEKGCVTIGGMQTGVAMLTGPNGWNSIGYADLQMFDPESSVPALMAPGDIVRFVPARIELLEHHHHHH | not soluble |
| MFTTYKNINELENAYDEERKQLNDAFNQIDELRHQTRKKCEQMYDHFLYLKHKMNYSEDAMIRMTRIIESFDRETNQRIRHHEMKLEDYKDELRREYLKQSDRIEGDELEHHHHHH | not soluble |
| MRRFKQQLAGRPAAAEIPLKRWLGVASHRCPAGPKRRRHDVMTCPSTQLRLAPITTGLVRRNPRILLSGPHQPTLVRYLEGWPKRWNGSRTFLIQFAQDGKDLARFPSDAFDFAVVQAPEAEDLDLVVRQLIRVARQGLITRRILR | not soluble |
| MGSDKIHHHHHHMYVGTQVAARDDEDFKVWAQLGVKNISADPPGKPASWVLDDFERLRDKVESFGLVLDMVQLPLPSRPIEQASYPDILLAGPERDRQIDAVCTMIENIAKAGIPAAKYNLNLIGIPRTEMELGRGGSLNEAWRWDKADHNADPGLAGVLSEDENWERIDYFLERVVPVAASNKVRLACHPHDPYTPPGYKGVTRVLGTIEGLKKFVQMRENPYHGLNFCQGSIGEMLDNPREEIDDIIRWFGSRDKIFNVHFRNISGGKLSFMETFPDEGDMDMVRSLKLYHELGYRYMIMPDHVPTIAGRDPVGVAFGFCYGYIAALIEALDNKHL | not soluble |
| MIGDFWKESNGLATANDMDKNLAYMYTMKKKARGQLLFTKEKLAEYGSKVGLFPGVKDWFRRIRQYGADREVIIEHYIISSGLKEMIEGTSIAKDFKEIYATSFYFDDDGVAVWPAQVVNYTNKTQFLFRISKGVLNVNDEAVNDSFAPDEIRVPFHNMIYIGDSDTDIPCMKLVNSHGGYSIGVFNPKERNEEKAKKRVYKMIRDNRIGYF | not soluble |
| MRTLRIAQYSVLTVGFAIYMYRLIEEIPIDIRNLNSDSLEGIINSDELCDVTVSNRNRGLLVRNDSLDLDILKAKFTTFFSKR | not soluble |
| MVEIKLENIVKKFGNFTALNNINLKIKDGEFMALLGPSGSGKSTLLYTIAGIYKPTSGKIYFDEKDVTELPPKDRNVGLVFQNWALYPHMTVYKNIAFPLELRKAPREEIDKKVREVAKMLHIDKLLNRYPWQLSGGQQQRVAIARALVKEPEVLLLDEPLSNLDALLRLEVRAELKRLQKELGITTVYVTHDQAEALAMADRIAVIREGEILQVGTPDEVYYKPKYKFVGGFLGNPPMNFVEAKVEDGKLVITEKSKLPIPKQYVEIVKETGITEVIIGFRPHDAEIVKGEGEGIVGEVYSFEPLGREQIVTVSVNDSIVKVFAPEGEHFSFGEKVTIKVKEELLVLFDKKTEKALEFSKL | soluble |
| MSTYYQSAPVLVHAHAYQPPLSPPQSPPHGYLPFYTSNPMMCSTSPLYFSPQMVQPLPPQQHYHMYPSTSAGPGMYYTDFNPHYVQIQISQSVSHDKILAGGPKDNCTVARGRKTHVDHRQLSIEKLHPLLLQFKLTTSELETNAYPMRRDGSTKAVSIADTVYTQNKKMFLDDYDMSRNCSRCNKEFKLSPNGTMIRSTGICRYHNRGVAINGKRDTFRKRYSCCNEEFNVALGCKFSDVHVTDQLFKKELSTFVSTPVPVPNDQRSTRVYALDCEMVYTIAGPALARLTMVDMQRNRVLDVFVKPPTDVLDPNTEFSGLTMEQINSAPDTLKTCHQKLFKYVNADTILIGHSLESDLKAMRVVHKNVIDTAILFRSTRDTKVALKVLSAKLLHKNIQGDNEDAIGHDSMEDALTCVDLIFYGLRNPESIAIREANTNC | not soluble |
| MGSDKIHHHHHHMELYRDPSQPIEVRVRDLLSRMTLEEKVAQLGSVWGYELIDERGKFSREKAKELLKNGIGQITRPGGSTNLEPQEAAELVNEIQRFLVEETRLGIPAMIHEECLTGYMGLGGTNFPQAIAMASTWDPDLIEKMTTAVREDMRKIGAHQGLAPVLDVARDPRWGRTEETFGESPYLVARMGVSYVKGLQGEDIKKGVVATVKHFAGYSASEGGKNWAPTNIPEREFKEVFLFPFEAAVKEANVLSVMNSYSEIDGVPCAANRKLLTDILRKDWGFEGIVVSDYFAVKVLEDYHRIARDKSEAARLALEAGIDVELPKTECYQYLKDLVEKGIISEALIDEAVTRVLRLKFMLGLFENPYVEVEKAKIESHRDIALEIARKSIILLKNDGILPLQKNKKVALIGPNAGEVRNLLGDYMYLAHIRALLDNIDDVFGNPQIPRENYERLKKSIEEHMKSIPSVLDAFKEEGIEFEYAKGCEVTGEDRSGFEEAIEIAKKSDVAIVVVGDKSGLTLDCTTGESRDMANLKLPGVQEELVLEVAKTGKPVVLVLITGRPYSLKNVVDKVNAILQVWLPGEAGGRAIVDIIYGKVNPSGKLPISFPRSAGQIPVFHYVKPSGGRSHWHGDYVDESTKPLFPFGHGLSYTKFEYSNLRIEPKEVPPAGEVVIKVDVENIGDRDGDEVVQLYIGREFASVTRPVKELKGFKRVSLKAKEKKTVVFRLHMDVLAYYNRDMKLVVEPGEFKVMVGSSSEDIRLTGSFSVVGEKREVVGMRKFFTEACEE | not soluble |
| MGSDKIHHHHHHMTIWVRNGNNAATEQEISAKETELGLFLPAEYKELLLKQNGGLIRKNHFPTNEPTSYGLDVAEIYYLASLNELLTDIPEQNDVDLAGKQVYFHRDESRYIGFSYADNKSLPSIIYVDFETLQTLVVAENMAEFLEALYFSPFPVDFAEQFPVKKLDQILASSNVKKTKQLLELLEDYPDKKWYLETLIRLLQKNEIPYNIVVYQSFENQLLYFRRKLVPELVEKIFAMLKDCDGIDQSATTELYKEWE | not soluble |
| MGSDKIHHHHHHMQQAQLPLEAILYQYDLYPEAVEDHGENVKKLVTKHGLFALKKTQMTRSQADWFVYCMRKLDRLGYRKVVPLVPTKFGEYTLTDRDTSFYVMPWIESIPYNARESQEEKLADQLGVIHRLTVKTQPFSKEQLEASYNELRDRWDSRWLTMNRFADQAERKTYMSPYELTLLTHFSFLEHMAHTAKESLEAWYETCLEKEKYRSVLCHGRLSRAHAFFNERHEPLLFNFERAALDTPARDLASFFRHSFPHALWSEEEGHRWLYRYEQHLPLLEEEKRLLHAYLSFPDPVIYGIEAYQQQSGPPSEVKHVKRLEKRLLNLRRVERFSKSLLPTPAINESGLS | not soluble |
| MGSDKIHHHHHHMSKKIIDEVIDILEDKKYTYTMIEYPEHNRKSVDIVLNSKEPTLIRVSEDKITKEEISDLKKIAVSTLTASLVVTNEEEEDIVSVKADNVFAISPEGFKKVINGEKIFLYRTRGGIFIKIRNYILKHKREEMGYSIGDVAKFLGVSRKAIYDYEKGDSDVSLEVAEKLIDLFGDDIIGDVIWDSIKSKKEILEEGVAEFSPENFKAKLIYKLKESGLNALSLKLTAADLIVKDSDNNRYLVTIENKDYNKSMKKFYEAKKLASYTKSELVIIIRTSKMLKECEDLGYKTYEENDIHSLIDEIKGSNGRQG | not soluble |
| QQLSMELESARAFNASVLANVAEGILVVDEAGNISFANPAICQLLNASVDQLRGTQVLDYVIEPQVSSWLESGFYQHYRKADTYRVHDAILRTAQGSQLPVALSCAALPAEQKAMVLTVLDMS | not soluble |
| EVIDLASPIEAHGETLSQVTFRRPTAQEARAIKALPYKIDKNEDVSLDLDVAAKYIAVCAGIPPSSVNQMDLCDINTLSWKVASFFMAAAS | not soluble |
| MAHHHHHHSLRGIIKRLNDDGFGILYNKILVPFSAPGDEVEVLKTEKQKRAKIATEWRLLRSSPIRVGARCKVFGKCGGCILQHINYNSQLEFKKEKLRKILGREVEIIPSPRIFGHRNRIDLAVTVNAIGFREKGKWWSVVDVEECPVFGKTSKKAIERLREYIEEEKVSTWKIREDSGFLRYMVLREGKFTGEIMVNFVTKEGELPDPTSYFDFADSIYWSINRSKSDVSYGDIEKYWGKEFIMEELDGVKYLIHPNSFFQTNSYQAVNLVKTVEKFVEGEKVVDMYSGVGTFGVYLAKKGMKVVGFDSNAFAIEMANKNAEINNVEAEFFVASDREVDIKGFDTVIVDPPRAGLHPKLVKRLNDHGPETIVYVSCNPKTFKVNIEQLNNYIIEELIALDMFPHTPHIELVGKLRRLVEG | soluble |
| MANAFKLFPTRDTNYLEATYVHHDLNVVWLKLSFRVPLETLFLEYRQQGGHTLILSRQVYENILVRDTDFMSVFCNDLQAILEDSPAIERFFVELSPYYWGKEDFDKRMSAWSQSVQLYDWLVTFLDDRQEELKLKLVSLCEFTSLQILSIIRLISSNYLETIKLTFRKNDEQLESNFQEILKTKQWNNAKAAYVKGCCTPIASILHFQKATVQLDILSIDDLRVLKELATKGTLNIFKIRFHSIADSITDNSLIELFGESKHSFLWEWSINGIDNREIECIYSKTYKEFSIFYSEEYQKLGHGVPENNKSEETTLCTSEHSSKVLQNALLMKNILNHLERKDICRLQRTSRKIHESIANLKPDSKIVALEISLVKIECVTVNVFHKMGVKKLIYENVGLSNVDPTAKLITAMERHNQGVFGEEICFAHGRWQLGFSLSAFAVDLIRNLKDQKSEIQELWLDFSLTQARLRERPDKEHIKILVLATRQLLDVISSAGKTLDRQIPVKKLSIQALGHKPLLQILPLLNPVTLKTIEIQKSEVIMAKKPLNLNKVVQLDQWKNAEEVLIKSITAPGQIQHFLHFVVAEVNLESISMGDVLELKNVFQQNSNKLKKFKAFFENSDIDERIYDDQFLGFPYKRPENPSTNLPSVWFVRIPTSTVLHILYYKNRKMISFSRVSNSSVPSDALM | not soluble |
| MHKVLVPFDGSEHAMRALGYVIELSGDLNKPLEVHVLNVQASPIDYSLYLAPDMIDGVKAGLKNEGKRVLDDAIALLAAAGVPFQAHVDLGNVAEQVEAEVQRLGCDAVVMGTRGLGNFGGLLLGSVATRVIHEVSVPVTLIK | not soluble |
| MGSDKIHHHHHHMRAIFFNGDLQYTTDYPDPVRQPGEALIRPHLVGICNTDLEITRGYMNFRGVLGHEFVGTVVASDDPSWQGKRVVGEINAACRRCPTCLRGDVSHCPQRTTLGIYRRDGAMADLFTLPEACLHEVPASVSDEAAVFTEPLAAALEIVEQSHIRPTERVAVVGDGKLGAMIVQVLRLTGCELTLIGRHPERWDVYRQQGITCVRSTDLPGTLFDVVVDCTGNPSGLNIARQIIRPRGRLILKSTFAAETQLNLSMVVVDEIQLIGSRCGPFAPALRLLERGLIATTPLISARYPLAEGLQAFAAAPGQLKVLLSV | not soluble |
| MAHHHHHHMFPGEQDITGSQLAEYVREQVQASANLVVYVEDTHCDVDTIGLRRLHATIGGTAVFSGYDLYRRSKYEKVEQGLDELWTSNVVLEASAIGSLSALCDNVRMVRRHEGCTIALAPQSLMHNVAFAVHLAVGVGARFLCVGGLMDVVQCEVVSQYLYVQDELEQSRLLLEEAPKPPCAVLPDAPTDTVPEIKRRLDKKKRKK | not soluble |
| MSLDLKEIVQAGAFDLHIHTTASDGEYSPTAIVKKAKEIGLRTIAITDHDTLDGIEEAVIAGKRHGINVIPAIELTTKYKGTNVDILGYNVKASEKLQAILVQLKKHREGRAMQIIEKFNDIGFTITLDEVKQFSEDGVIARPHIAKAIVKKGYVLDYQTVFDEYLADGKPCAIDKMILTPEEGIKLIHEAGGKAILAHPVYLEDTLVRELLALDFDGIEVWHRNHDETDQEKYKMLATEFALIKTGGSDFHTDEHSLGQFGWKADEEGHHHHHH | soluble |
| MGSDKIHHHHHHMENLIFDIGFHKGEDTLFYLLKGYRVIAVDADPDLINEWQNIFKKYIENGKLLLLNYVISDTNDVDTDFYIGPNTIWSSTKVSISSRMCCKAIKKKIKSKRLDHLFHEYGTPFYCKIDIEGNDIIALQTMEKVSEKPLYISVETECIGEDEDIAGHELDTLNALYQLGYRKFKLVDQRTLTVLDYNCFYKNNSEHNWFEQIETNCKYAEELIVLSDTDQRVKFTDFFPGSSGPFGEELAGKWYDYPQAKEMLKKHREDKMRLNEPAWTFWCDWHATF | not soluble |
